The values below come from patent US20210198377A1 (XDCEXPLORER SHANGHAI, published 2021).

Assay [1] deals with T1, mouse TPBG (full length, on cells) (mouse, UniProt Q9Z0L0 32-426).
T1 construct: whole, on cells; On transfected CHO-K1 cells; also called mTPBG; CHO-K1-mTPBG
T1 sequence (looked up): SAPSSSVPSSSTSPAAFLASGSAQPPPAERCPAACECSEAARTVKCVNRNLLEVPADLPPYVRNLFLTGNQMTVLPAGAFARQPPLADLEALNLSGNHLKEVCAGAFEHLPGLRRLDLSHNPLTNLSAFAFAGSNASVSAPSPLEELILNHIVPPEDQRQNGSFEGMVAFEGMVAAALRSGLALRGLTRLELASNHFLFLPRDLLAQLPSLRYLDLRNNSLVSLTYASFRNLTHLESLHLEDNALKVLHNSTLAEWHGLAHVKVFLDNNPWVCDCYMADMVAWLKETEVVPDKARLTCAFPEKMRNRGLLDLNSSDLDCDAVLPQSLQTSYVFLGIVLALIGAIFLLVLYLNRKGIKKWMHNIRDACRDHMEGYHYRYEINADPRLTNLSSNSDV
Briefly: FACS on CHO-K1-mTPBG cells. The source says: The stable cell lines CHO-k1-hTPBG, CHO-k1-cTPBG, CHO-k1-mTPBG (i.e. the CHO-k1-hTPBG 3A2F1, CHO-k1-cTPBG 3F13G4 and CHO-k1-mTPBG 3A3 shown in table 7) and CHO-K1 cells were expanded to a 90% of confluency in T-75 cell culture flasks, the culture medium were removed, and cells were then rinsed twice with HBSS buffer (Hanks Balanced Salt Solution, purchased from Invitrogen) and lysed with enzyme-free cell dissociation buffer (Versene solution purchased from Life technology) and harvested. Harvested cells were rinsed with HBSS buffer twice and counted before diluting with HBSS buffer to 2×10⁶ cells /mL, and 10% goat serum blocking buffer was then added, wherein the percentage is the mass percentage. Cells were incubated on ice for 30 min, and then washed twice with HBSS buffer by centrifugation. The harvested cells were resuspended with FACS buffer (HBSS+1% BSA, wherein the percentage is mass percentage) to a concentration of 2×10⁶ cells /mL. 100 μL per well of the cells was aliquoted to 96-well FACS reaction plates, and 100 μL per well of test sample—the purified TPBG antibody obtaining from Embodiment 2 was added before incubating on ice for 2 h. The plate was washed with the FACS buffer twice by centrifugation, and 100 μL per well of fluorescence (Alexa 488) labeled secondary antibody (purchased from Invitrogen) was then added and incubated on ice for 1 h. The plate was washed with the FACS buffer for three times by centrifugation, follow by resuspending in 100 μL of fixation buffer (4% (v/v) paraformaldehyde). Cells were washed with FACS buffer twice after 10 min, follow by resuspending with 100 μL of FACS buffer. The results were measured and analyzed by FACS (FACS Calibur, purchased from BD). Data analysis was performed by software (CellQuest) to obtain mean fluorescence intensity (MFI) of the cells, follow by calculating EC50 value by software (GraphPad Prism) analysis and data fitting. The analysis results were shown in Table 8 and FIGS. 7-10, and data in FIGS. 7-10 show the mean fluorescence intensity (MFI) of cells.

In assay [2] the target is T2, biotinylated recombinant TPBG protein (Homo sapiens (Human), UniProt Q13641 32-355, Biotinylated; the number and positions of the biotin labels are not stated and the letters do not carry them.).
T2 sequence: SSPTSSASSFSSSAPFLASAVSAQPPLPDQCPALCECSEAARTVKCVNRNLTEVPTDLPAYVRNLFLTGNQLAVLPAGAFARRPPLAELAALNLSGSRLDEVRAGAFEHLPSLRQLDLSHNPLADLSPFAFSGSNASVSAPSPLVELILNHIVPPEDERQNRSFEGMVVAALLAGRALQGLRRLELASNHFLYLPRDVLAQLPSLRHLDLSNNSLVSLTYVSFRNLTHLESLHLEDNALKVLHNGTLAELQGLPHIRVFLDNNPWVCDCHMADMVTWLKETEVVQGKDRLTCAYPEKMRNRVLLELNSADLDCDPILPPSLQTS
Briefly: competitive ELISA; row antibody 5 ug/mL; competitor: coated 52C9E9F6. The protocol: (§1) The purified antibodies to be tested were diluted to 1 μg/mL using PBS, and coated with high-adsorption of 96-well microplates at […]. After overnight coating at 4[…], 250 μL of blocking buffer (PBS containing 0.01% (v/v) Tween20 and 1% (w/w) BSA) was added to block coating at room temperature for 1 h, and 0.05 μg/mL of biotinylated recombinant TPBG protein was added to each well. Meanwhile, 5 μg/mL final concentration of competitive antibodies, i.e. the purified antibodies obtained from Embodiment 2 with the clone number of 12B12C7C3, 5G4H10G5, 37H9C5G2, 39A11G5F2, 52C9E9F6, 28D4E6A9, 36A10D8B12, 99E12C7H1, 103E2E9C2 and 106D5G3D10 were added and incubated at 25-37° C. for 1-2 h. The plates were washed three times with plate-washing buffer (PBS containing 0.01% (v/v) Tween20) and HRP (horseradish peroxidase)-labeled streptavidin (purchased from Sigma) was added. After incubating at 37° C. for 0.5 h, the plates were washed three times with plate-washing buffer (PBS containing 0.01% (v/v) Tween20), and 100 μL of TMB substrate was added to each well and the plates were further incubated at room temperature for 30 min prior to adding 100 μL of stop buffer (1.0N HCl) to each well. A₄₅₀ₙₘ values were read using an ELISA microplate reader (SpectraMax 384plus purchased from Molecular Device) and results were shown in FIG. 6. The higher the values of the competition rate, the closer the antigen surface of the two antibodies are.

Assay [3] deals with T2, biotinylated recombinant TPBG protein. The assay can be described thus: competitive ELISA; row antibody 5 ug/mL; competitor: coated 103E2E9C2. The protocol:
as §1
(An ELISA detects its analyte on a solid surface through an enzyme-linked reagent.)

Assay [4] has the same target. Briefly: competitive ELISA; row antibody 5 ug/mL; competitor: coated 99E12C7H1. On the procedure: as §1
Assay [5] shares this target. The assay can be described thus: competitive ELISA; row antibody 5 ug/mL; competitor: coated 106D5G3D10. The protocol:
as §1

Assay [6] shares this target. The assay can be described thus: competitive ELISA; row antibody 5 ug/mL; competitor: coated 36A10D8B12. On the procedure:
as §1

Residue numbers refer to the chain shown, from its start.

B1: 36A10D8B12 (antibody, V domains shown)
VH: DVQLQESGPGMVKPSQSLSLTCTVTGYSITSGYDWHWIRHFPGNKLEWMGYISYSGNTNYNPSLKSRISITHNTSKNHFFLRLNSVTTEDTATYYCARGYGNWDAMDYWGQGTSVTVSS
VL: DIVMTQSQKFMSTSVGDRVSVTCKASQIVDTNVAWYQQKPGQSPKALISSASYRYSGVPDRFTGSGSGTDFTLTISNVQSEDLAEYFCQQYNSYPLTFGAGTKLELT
notes: Mouse hybridoma antibody purified from culture supernatant; also called TPBG antibody; lead antibody
Consider B1, for which the binding result in assay [1] was “no binding”. In addition, the competition rate was determined as 23% in assay [2]; 40% in assay [3]; 25% in assay [4]; 14% in assay [5]; 85% in assay [6].

B2: 103E2E9C2 (antibody, V domains shown)
VH: EVQLQQSGPVLVKPGASVKMSCEASGYSFIDYYMSWVKQSRGRSLEWIGVFNPYSGEIIYNQKFKGKATLTVDKSSSTAYMELSSLTSEDSGVYSCARLRISYYAIDYWGQGTSVAVSS
VL: ENVLTQSPAIMSASPGEKVTMTCRATSSVSSGHFHWYQQKSGASPKVWIYSTSNLASGVPARFSGSGSGTSFSLTISSVEAEDVATYFCQQYSGYPLTFGGGTKLEIK
notes: as for B1
For the molecule B2, in assay [1], the binding result is recorded as “no binding”. For the same molecule, the competition rate is 0% in assay [2]; 88% in assay [3]; 3% in assay [4]; 0% in assay [5]; 31% in assay [6].

B3: 5G4H10G5 (antibody, V domains shown)
VH: EVQLVESGGDLVQPGGSLKLFCAASGFTFSTYGLSWVRQTPDKRLELVATITNNDGSAYYPDSVKGRFTISRDKAKNTLFLQMTSLKSEDTAMYYCARETGFGSSYLFDYWGQGTLVTVSA
VL: NIVMTQTPKFLLVSAGDRVTITCKASQSVSNDVAWYQQKPGQSPKLLIYFATNRYTGVPNRFTGSGYGTEFTFTISSVQAEDLAVYFCQQDYSSPTFGGGTKLEIK
notes: as for B1
The term EC50 denotes the concentration that produces a half-maximal response. A low value points to higher potency in that assay. In assay [1], B3 had an EC50 of 9.07 nM. Also, the competition rate worked out at 19% in assay [2]; 2% in assay [3]; 95% in assay [4]; 3% in assay [5]; 1% in assay [6].

B4: 28D4E6A9 (antibody, V domains shown)
VH: DVQLVESGGGLVRPGGSLKLSCAASGFTFSNYVMSWARQSPEKRLEWVAEISTGGSHTYYSDTVTGRFTISRDNAKKALYLEMSSLRSEDTAIYYCIMFYYGSSYSMDYWGQGTSVTVSS
VL: DIQMTQSTSSLSASLGDRITISCRASQDIRNYLNWYQQKPDGTVKLLIYHTSRLHSGVPSRFSGSGSGTDYSLTISNLEQEDIATYFCQQGDTLPLTFGAGTRLELK
notes: as for B1
With B4, the binding result in assay [1] is on record as “no binding”. Moreover, the competition rate in assay [2] amounted to 0%; in assay [3], 88%; in assay [4], 11%; in assay [5], 5%; in assay [6] it was 75%.

B5: 37H9C5G2 (antibody, V domains shown)
VH: QVQLQQSDAELVRPGASVKMSCKVSGYTFTDHTIHWMKQRPEQGLEWIGYIYPRDGSGTYNEKFKGKATLTADKSSSTAYMQLNSLTSEDSAVYFCARDGSSHYWYFDVWGTGTTVTVSS
VL: DIQMTQSPASLSASVGETVTITCRASEIIYNYLAWYQQKQGKSPQLLVYNAKTLAEGVPSRFSGSYSGTQFSLNINSLQSEDFGIYYCQHHHDTPLTFGAGTKLDLK
notes: as for B1
For the molecule B5, in assay [1], it took 11.1 nM to reach a half-maximal effect (EC50). Further, the competition rate was found to be 5% in assay [2]; 38% in assay [3]; 7% in assay [4]; 4% in assay [5]; 94% in assay [6].

B6: 39A11G5F2 (antibody, V domains shown)
VH: QVQLQQSGAELMKPGASMRLSCKATGYTFTGYWLEWIKRRPGHGLEWIGEILPGRGSTNYNEKFKGKATFTAETSSNTAYMQLTSLTTEDSAIYYCARGGRDFDNWGQGTTLTVSS
VL: DIQMTQSTSSLSASLGDRVTISCSASQGINNHLNWYQQKPDGTVKLLIYYTSSLHSGVPSRFSGSGSGTDYSLTISNLEPEDIAIYYCQQFSKLPYTFGGGTKVEMK
notes: as for B1
Molecule B6 showed an EC50 in assay [1] of 1.88 nM. Besides, the competition rate amounted to 95% in assay [2]; 0% in assay [3]; 16% in assay [4]; 4% in assay [5]; 0% in assay [6].

B7: 52C9E9F6 (antibody, V domains shown)
VH: QVQLQQSGAELMKPGASVKLSCKATGYTFTGYWIEWIKQRPGHGLEWIGEILPGRGSTDYNEKFKGKATFTADTSSNTAYMQLSSLTTEDSAIYYCTRGRLDFTYWGQGTLVTVSA
VL: B6 VL with S7T, N30R, H32Y, I85T, F91Y, L94V, Y96W, V104L, M106I
notes: as for B1
As to B7, in assay [1], the binding result is on record as “no binding”. For the same molecule, the competition rate in assay [2] is 97%; in assay [3] it was 0%; in assay [4] it was 18%; in assay [5], 7%; in assay [6] it was 19%.

B8: 99E12C7H1 (antibody, V domains shown)
VH: QIQLVQSGPELKKPGETVKISCKPSGYTFTAYGLSWVKQAPGQGFQWMGWINTYSGVPTYTDDFKGRFAFSLETSAGTASLQITNLKNEDTATYFCARSSIPPFEYWGPGTTLTVSS
VL: SFVMTQSPKFLLVSVGDRVTITCKASQSVSNDVAWYQQKPGQPPRVLIYFASNRYTGVPDRFTGSGYGTDFTFTISTVQAEDLALYFCQQDYSSPWTFGGGTKLEIK
notes: as for B1
Take B8: the binding result in assay [1] is listed as “no binding”. The competition rate in assay [2] was 0%; in assay [3], 1%; in assay [4], 94%; in assay [5], 12%; in assay [6] it was 8%.
